Among the data in article PMC5868259 are IC50 and Kd values, retold here.

What is called IC50 is the concentration that inhibits the measured activity by half. As usually defined, the Kd is the constant that tells how readily two partners part at equilibrium.

The test addresses PKA catalytic subunit (PKAc), recombinant (UniProt P05132). Nature of the test: fluorescence polarisation; LiReC competition assay, R-subunit inhibition response without cAMP: 10.0 nM PKAc, 1 nM-1 μM bRIα (monomer), 1.67 nM [5/6-FAM]-IP20; 50 mM MOPS pH 7.0, 35 mM NaCl, 10 mM MgCl2, 1 mM ATP, 2 mM DTT, 0.005% Triton X-100.

For “recombinant bovine PKA regulatory subunit RIα (bRIα), S101A mutant (from UniProt P00514 1-380) (natural protein)”, the IC50 was determined as 5.05 nM and the Kd is below 10 nM.

Regarding “recombinant bovine PKA regulatory subunit RIα (bRIα), S101E phosphomimetic mutant (from UniProt P00514 1-380) (natural protein)”, the IC50 came out at 212 nM.

With “recombinant bovine PKA regulatory subunit RIα (bRIα), wildtype (from UniProt P00514 1-380) (natural protein)”, the IC50 is 4.5 nM and the dissociation constant (Kd) was below 10 nM.
